Read-outs that look alike come from different tables or passages of the source.
Columns and labels:
[1] = Ex vivo biodistribution of 177Lu-labeled peptide tetramers in H2009 xenografted SCID mice; settings: CB17 SCID, mouse, iv, total radioactivity; for tissue uptake at 1.5 h / tissue to tissue ratio at 1.5 h: 90 min p.i.; for tissue uptake at 24 h / tissue to tissue ratio at 24 h: 154 pmol, 24 h p.i.
How it was run: (§1)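 SCID mice carried subcutaneous H2009 xenografts on the right shoulder. 177Lu-labeled conjugates were injected i.v., and ex vivo organ distribution was measured at two time points post-injection.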

[2] = tested on: αvβ6-integrin expressing human lung adenocarcinoma cell line H2009 xenografts; experiment: as above; settings: H2009 bearing SCID mice
How it was run: as §1

[3] = SPECT imaging of H2009 tumor xenograft, ROI-based tumor uptake; type: in vivo; settings: SCID, mouse, iv, total radioactivity, i.v. injection of 36.5 MBq, scan time 1 h
Description: Fig. 6 Single-photon emission computed tomography (SPECT) of a SCID mouse bearing a human H2009 tumor xenograft on the right shoulder, recorded at 4 time points (1 h, 3 h, 24 h, and 72 h) after i.v. injection of 36.5 MBq of ^177Lu-Y8, scan time 1 h. Tumor position is indicated by white dotted circle. Adjacent figures denote ROI-based tumor uptakes in % IA mL^−1. TEXT PRINTED IN THE PICTURE: no label printed: % IA / mL: 2.8 (1 h p.i.); % IA / mL: 2.7 (3 h p.i.); % IA / mL: 2.4 (24 h p.i.); % IA / mL: 2.0 (72 h p.i.) DOUBTS OF THE COPYIST ABOUT THIS PICTURE: The picture prints no substance label. The unit % IA / mL is printed only at the colour scale bar, and assigning it to the numbers beside the dotted circles is assumed.
SPECT imaging was performed for 60 min per animal on a nanoScan SPECT/CT (Mediso, Budapest, Hungary) at different timepoints (1 h, 3 h, 24 h, 72 h) after intravenous injection of approx. 40 MBq [^177Lu]Lu-Y8 per animal (n = 2). Reconstruction, image analysis and quantification of SPECT data were performed using Nucline and Interview fusion software (both Mediso).

Compound: CC(C)C[C@@H]1NC(=O)[C@H](CC(=O)O)NC(=O)CNC(=O)[C@H](CCCNC(=N)N)NC(=O)[C@H](Cc2ccc(O)cc2)NC(=O)[C@H](CCCCNC(=O)CCc2cn(CCCNC(=O)CCP(=O)(O)CN3CCN(CP(=O)(O)CCC(=O)NCCCn4cc(CCC(=O)NCCCC[C@H]5C(=O)N[C@@H](Cc6ccc(O)cc6)C(=O)N[C@@H](CCCNC(=N)N)C(=O)NCC(=O)N[C@@H](CC(=O)O)C(=O)N[C@@H](CC(C)C)C(=O)N[C@@H](C)C(=O)N[C@@H](Cc6ccc(O)cc6)C(=O)N6CCC[C@@H]6C(=O)N5C)nn4)CCN(CP(=O)(O)CCC(=O)NCCCn4cc(CCC(=O)NCCCC[C@H]5C(=O)N[C@@H](Cc6ccc(O)cc6)C(=O)N[C@@H](CCCNC(=N)N)C(=O)NCC(=O)N[C@@H](CC(=O)O)C(=O)N[C@@H](CC(C)C)C(=O)N[C@@H](C)C(=O)N[C@@H](Cc6ccc(O)cc6)C(=O)N6CCC[C@@H]6C(=O)N5C)nn4)CCN(CP(=O)(O)CCC(=O)NCCCn4cc(CCC(=O)NCCCC[C@H]5C(=O)N[C@@H](Cc6ccc(O)cc6)C(=O)N[C@@H](CCCNC(=N)N)C(=O)NCC(=O)N[C@@H](CC(=O)O)C(=O)N[C@@H](CC(C)C)C(=O)N[C@@H](C)C(=O)N[C@@H](Cc6ccc(O)cc6)C(=O)N6CCC[C@@H]6C(=O)N5C)nn4)CC3)nn2)N(C)C(=O)[C@H]2CCCN2C(=O)[C@H](Cc2ccc(O)cc2)NC(=O)[C@H](C)NC1=O [Compound 177Lu-Y8, metal not drawn]
- tissue uptake at 1.5 h ([1]; spleen, + 50 nmol non-labeled compound 10 min prior to activity, n = 2, read-out: Spleen %IA/g, + 50 nmol cold): 4.99 %ID/g
- tissue uptake at 1.5 h ([1]; stomach (empty), 124 pmol, H2009 bearing SCID mice, read-out: Stomach (empty) %IA/g): 8.26 %ID/g
- tissue uptake at 24 h ([1]; stomach (empty), H2009 bearing SCID mice, read-out: Stomach (empty) %IA/g): 3.84 %ID/g
- tissue uptake at 72 h ([1]; stomach (empty), 199 pmol, 3 d p.i., H2009 bearing SCID mice, read-out: Stomach (empty) %IA/g): 2.65 %ID/g
- tissue uptake at 1.5 h ([1]; stomach (empty), + 50 nmol non-labeled compound 10 min prior to activity, n = 2, read-out: Stomach (empty) %IA/g, + 50 nmol cold): 1.19 %ID/g
- tissue uptake at 24 h ([1]; tumor (H2009 xenograft), H2009 bearing SCID mice, read-out: Tumor H2009 %IA/g): 2.42 %ID/g
- tissue uptake at 1.5 h ([1]; tumor (H2009 xenograft), + 50 nmol non-labeled compound 10 min prior to activity, n = 2, read-out: Tumor H2009 %IA/g, + 50 nmol cold): 1.71 %ID/g
- tissue to tissue ratio at 72 h ([1]; tumor / adrenals, 199 pmol, 3 d p.i., H2009 bearing SCID mice, read-out: tumor/organ ratio, Adrenals): 4.5
- tissue to tissue ratio at 24 h ([1]; tumor / blood, H2009 bearing SCID mice, read-out: tumor/organ ratio, Blood): 59.6
- tissue to tissue ratio at 72 h ([1]; tumor / bone, 199 pmol, 3 d p.i., H2009 bearing SCID mice, read-out: tumor/organ ratio, Bone): 3.4
- tissue to tissue ratio at 24 h ([1]; tumor / heart (myocard), H2009 bearing SCID mice, read-out: tumor/organ ratio, Heart (myocard)): 15.2
- tissue to tissue ratio at 72 h ([1]; tumor / large intestine (empty), 199 pmol, 3 d p.i., H2009 bearing SCID mice, read-out: tumor/organ ratio, Large intestine (empty)): 3.6
- tissue to tissue ratio at 24 h ([1]; tumor / liver, H2009 bearing SCID mice, read-out: tumor/organ ratio, Liver): 2.7
- tissue to tissue ratio at 24 h ([1]; tumor / lung, H2009 bearing SCID mice, read-out: tumor/organ ratio, Lung): 2.1
- tissue to tissue ratio at 72 h ([1]; tumor / muscle, 199 pmol, 3 d p.i., H2009 bearing SCID mice, read-out: tumor/organ ratio, Muscle): 8.4
- tissue to tissue ratio at 72 h ([1]; tumor / small intestine (empty), 199 pmol, 3 d p.i., H2009 bearing SCID mice, read-out: tumor/organ ratio, Small intestine (empty)): 11.4
- tissue to tissue ratio at 24 h ([1]; tumor / spleen, H2009 bearing SCID mice, read-out: tumor/organ ratio, Spleen): 1.4
- tissue to tissue ratio at 72 h ([1]; tumor / stomach (empty), 199 pmol, 3 d p.i., H2009 bearing SCID mice, read-out: tumor/organ ratio, Stomach (empty)): 0.8
- tissue to tissue ratio at 1.5 h ([1]; tumor/adrenals, 124 pmol, H2009 bearing SCID mice, read-out: tumor/organ ratio, Adrenals): 8.9
- tissue to tissue ratio at 24 h ([1]; tumor/adrenals, H2009 bearing SCID mice, read-out: tumor/organ ratio, Adrenals): 10.2
- tissue to tissue ratio at 1.5 h ([1]; tumor/blood, 124 pmol, H2009 bearing SCID mice, read-out: tumor/organ ratio, Blood): 2.4
- tissue to tissue ratio at 72 h ([1]; tumor/blood, 199 pmol, 3 d p.i., H2009 bearing SCID mice, read-out: tumor/organ ratio, Blood): 67
- tissue to tissue ratio at 1.5 h ([1]; tumor/bone, 124 pmol, H2009 bearing SCID mice, read-out: tumor/organ ratio, Bone): 1.8
- tissue to tissue ratio at 24 h ([1]; tumor/bone, H2009 bearing SCID mice, read-out: tumor/organ ratio, Bone): 3.6
- tissue to tissue ratio at 1.5 h ([1]; tumor/heart (myocard), 124 pmol, H2009 bearing SCID mice, read-out: tumor/organ ratio, Heart (myocard)): 5.9
- tissue to tissue ratio at 72 h ([1]; tumor/heart (myocard), 199 pmol, 3 d p.i., H2009 bearing SCID mice, read-out: tumor/organ ratio, Heart (myocard)): 12.2
- tissue to tissue ratio at 1.5 h ([1]; tumor/large intestine (empty), 124 pmol, H2009 bearing SCID mice, read-out: tumor/organ ratio, Large intestine (empty)): 1.8
- tissue to tissue ratio at 24 h ([1]; tumor/large intestine (empty), H2009 bearing SCID mice, read-out: tumor/organ ratio, Large intestine (empty)): 1.8
- tissue to tissue ratio at 1.5 h ([1]; tumor/liver, 124 pmol, H2009 bearing SCID mice, read-out: tumor/organ ratio, Liver): 5.1
- tissue to tissue ratio at 72 h ([1]; tumor/liver, 199 pmol, 3 d p.i., H2009 bearing SCID mice, read-out: tumor/organ ratio, Liver): 2.4
- tissue to tissue ratio at 1.5 h ([1]; tumor/lung, 124 pmol, H2009 bearing SCID mice, read-out: tumor/organ ratio, Lung): 1
- tissue to tissue ratio at 72 h ([1]; tumor/lung, 199 pmol, 3 d p.i., H2009 bearing SCID mice, read-out: tumor/organ ratio, Lung): 2.2
- tissue to tissue ratio at 1.5 h ([1]; tumor/muscle, 124 pmol, H2009 bearing SCID mice, read-out: tumor/organ ratio, Muscle): 7.4
- tissue to tissue ratio at 24 h ([1]; tumor/muscle, H2009 bearing SCID mice, read-out: tumor/organ ratio, Muscle): 9.5
- tissue to tissue ratio at 1.5 h ([1]; tumor/pancreas, 124 pmol, H2009 bearing SCID mice, read-out: tumor/organ ratio, Pancreas): 14.3
- tissue to tissue ratio at 24 h ([1]; tumor/pancreas, H2009 bearing SCID mice, read-out: tumor/organ ratio, Pancreas): 18.4
- tissue to tissue ratio at 72 h ([1]; tumor/pancreas, 199 pmol, 3 d p.i., H2009 bearing SCID mice, read-out: tumor/organ ratio, Pancreas): 14.9
- tissue to tissue ratio at 1.5 h ([1]; tumor/small intestine (empty), 124 pmol, H2009 bearing SCID mice, read-out: tumor/organ ratio, Small intestine (empty)): 2.1
- tissue to tissue ratio at 24 h ([1]; tumor/small intestine (empty), H2009 bearing SCID mice, read-out: tumor/organ ratio, Small intestine (empty)): 2.5
- tissue to tissue ratio at 1.5 h ([1]; tumor/spleen, 124 pmol, H2009 bearing SCID mice, read-out: tumor/organ ratio, Spleen): 0.7
- tissue to tissue ratio at 72 h ([1]; tumor/spleen, 199 pmol, 3 d p.i., H2009 bearing SCID mice, read-out: tumor/organ ratio, Spleen): 1
- tissue to tissue ratio at 1.5 h ([1]; tumor/stomach (empty), 124 pmol, H2009 bearing SCID mice, read-out: tumor/organ ratio, Stomach (empty)): 0.7
- tissue to tissue ratio at 24 h ([1]; tumor/stomach (empty), H2009 bearing SCID mice, read-out: tumor/organ ratio, Stomach (empty)): 0.7
- tumor/organ ratio, Kidneys ([2]; 90 min p.i.): 0.0
- tumor/organ ratio, Kidneys ([2]; 24 h p.i.): 0.0
- tumor/organ ratio, Kidneys ([2]; 3 d p.i.): 0.0
- tissue uptake per volume at 1 h ([3]; 1 h p.i.): 2.8 %ID/mL
- tissue uptake per volume at 3 h ([3]; 3 h p.i.): 2.7 %ID/mL
- tissue uptake per volume at 24 h ([3]; 24 h p.i.): 2.4 %ID/mL
- tissue uptake per volume at 72 h ([3]; 72 h p.i.): 2 %ID/mL

From paper PMC11187563, “The importance of tyrosines in multimers of cyclic RGD nonapeptides: towards αvβ6-integrin targeted radiotherapeutics” (RSC Medicinal Chemistry, 2024)
